Reference: US20180066015A1, “INHIBITORS OF GROWTH FACTOR ACTIVATION ENZYMES” (Washington University, published 2018)
Starred links: 1 amine or outer side, 2 acyl side, 3 side chain; linkers in the order of their positions; H or OH if unused. Non-standard residues stand in square brackets, D forms with d. No end group written: not given here. *: point of attachment. Kbt‑6‑CONH = ketobenzothiazole-6-CONH (amide link to Val), O=C(c1ccc2nc([*:1])sc2c1)[*:2]; kbt = C-terminal ketobenzothiazole, c1ccc2sc(*)nc2c1; His(π-Bom) = N[C@@H](Cc1cncn1COCc1ccccc1)C(=O)O; Fmoc = O=C(OCC1c2ccccc2-c2ccccc21)*; cmk = not defined here

T1: matriptase (Charles Craik, UCSF), recombinant (Homo sapiens (Human), UniProt Q9Y5Y6)
T1 sequence: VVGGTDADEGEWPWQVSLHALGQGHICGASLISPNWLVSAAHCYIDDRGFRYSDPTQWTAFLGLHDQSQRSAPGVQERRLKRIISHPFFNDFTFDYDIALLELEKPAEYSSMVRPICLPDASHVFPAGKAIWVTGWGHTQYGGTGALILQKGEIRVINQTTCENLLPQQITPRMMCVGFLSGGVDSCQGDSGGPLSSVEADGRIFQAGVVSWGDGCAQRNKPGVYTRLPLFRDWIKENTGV

B1: Ac-WLFR(SEQ ID NO: 20)-Kbt (peptide)
peptide: Ac-WLFR-kbt
SMILES: CC(=O)N[C@@H](Cc1c[nH]c2ccccc12)C(=O)N[C@@H](CC(C)C)C(=O)N[C@@H](Cc1ccccc1)C(=O)N[C@@H](CCCNC(=N)N)C(=O)c1nc2ccccc2s1
B2: H-His(Bom)-WLR-kbt (peptide)
peptide: H-[His(π-Bom)]WLR-kbt
SMILES: CC(C)C[C@H](NC(=O)[C@H](Cc1c[nH]c2ccccc12)NC(=O)[C@@H](N)Cc1cncn1COCc1ccccc1)C(=O)N[C@@H](CCCNC(=N)N)C(=O)c1nc2ccccc2s1
B3: H-His(Bom)-dWLR-kbt (peptide)
peptide: H-[His(π-Bom)][dW]LR-kbt
SMILES: CC(C)C[C@H](NC(=O)[C@@H](Cc1c[nH]c2ccccc12)NC(=O)[C@@H](N)Cc1cncn1COCc1ccccc1)C(=O)N[C@@H](CCCNC(=N)N)C(=O)c1nc2ccccc2s1

Biological target: T1, matriptase (Charles Craik, UCSF), …
Experiment: fluorogenic inhibition assay
Method: (§1) Inhibitors (11-pt serial dilutions, 0-20 μM final concentration in reaction) were serially diluted in DMSO (2% DMSO final concentration) and then mixed with either recombinant serine protease domain of HGFA [Z. Han, P. K. Harris, D. E. Jones, R. Chugani, T. Kim, M. Agarwal, W. Shen, S. A. Wildman, J. W. Janetka, Acs Med Chem Lett 2014, 5, 1219-1224], matriptase (Charles Craik, UCSF) or hepsin* (#4776-SE-010, R&D Systems, Minneapolis, Minn.) in black 384 well plates (Corning #3575. Corning, N.Y.). […] The final substrate concentrations for all assays were at the Kₘ for the respective enzymes. Changes in fluorescence (excitation at 380 nm and emission at 460 nm) were measured at room temperature over time in a Biotek Synergy 2 plate reader (Winnoski, Vt.). Using GraphPad Prism version 6.04 software program, (GraphPad Software, San Diego, Calif., www.graphpad.com), a four parameter curve fit was used to determine the inhibitor IC₅₀s from a plot of the mean reaction velocity versus the inhibitor concentration. The IC₅₀ values represent the average of three separate experimental determinations.
(§2) Fluorescent inhibitor and chromogenic proteolytic assays were performed in general accordance with the procedures described in Example 4 for compounds prepared in Examples 5 and 6.

Molecule | Ki [nM]
Fmoc-Ser-Arg-kbt [Fmoc-SR-kbt] | 90
Fmoc-Val-Arg-kbt [Fmoc-VR-kbt] | 1490
Fmoc-Arg-Arg-kbt [Fmoc-RR-kbt] | 2
Fmoc-Trp-Arg-kbt [Fmoc-WR-kbt] | 824
{Cy5.5}-KRLR-cmk (reading uncertain) [Cy5.5-KRLR(SEQ ID NO: 8)-cmk] | 172
Fmoc-Phe-Arg-kbt [Fmoc-FR-kbt] | 1280
Fmoc-Asp-Arg-kbt [Fmoc-DR-kbt] | 398
Fmoc-Tyr-Arg-kbt [Fmoc-YR-kbt] | 332
Fmoc-Met-Arg-kbt [Fmoc-MR-kbt] | 62.1
Fmoc-Glu-Arg-kbt [Fmoc-ER-kbt] | 8.4
H-[dW]-Phe-Arg-{kbt-OH} [H-dWFR-kbt-COOH] | 232
Fmoc-Gln-Arg-kbt [Fmoc-QR-kbt] | 1.6
Fmoc-Lys-Arg-kbt [Fmoc-KR-kbt] | 0.2
Fmoc-Ile-Arg-kbt [Fmoc-IR-kbt] | 657
Fmoc-Thr-Arg-kbt [Fmoc-TR-kbt] | 1220
Fmoc-Leu-Arg-kbt [Fmoc-LR-kbt] | 425
B1 | 5.96
Ac-KRLR (not fully specified (C-terminus); also: benzyl COOH at 3 or 4 (tables differ)) [Ac-KRLR(SEQ ID NO: 8)-kbt-Benzyl-3-COOH] | 3.6
B2 | 1550
{Cy5.5}-KRLR-kbt [Cy5.5-KRLR(SEQ ID NO: 8)-kbt] | 87.5
Fmoc-Ala-Arg-kbt [Fmoc-AR-kbt] | 0.5
Fmoc-Asn-Arg-kbt [Fmoc-NR-kbt] | 84.1
Ac-KRLR-{Kbt‑6‑CONH-Val-NH2} [Ac-KRLR(SEQ ID NO: 8)-Kbt-Val-NH2] | 7.42
Fmoc-Pro-Arg-kbt [Fmoc-PR-kbt] | 40.4
Fmoc-Gly-Arg-kbt [Fmoc-GR-kbt] | 0.1
Fmoc-His-Arg-kbt [Fmoc-HR-kbt] | 66.7
B3 | 1500

Biological target: Recombinant human hepsin (4776-SE-010, R&D Systems), activated (human, UniProt P05981)
Experiment: fluorogenic inhibition assay
Method: as §1, §2

Molecule | Ki [nM]
Fmoc-Ser-Arg-kbt [Fmoc-SR-kbt] | 886
Fmoc-Val-Arg-kbt [Fmoc-VR-kbt] | 314
Fmoc-Arg-Arg-kbt [Fmoc-RR-kbt] | 99.9
Fmoc-Trp-Arg-kbt [Fmoc-WR-kbt] | 411
{Cy5.5}-KRLR-cmk (reading uncertain) [Cy5.5-KRLR(SEQ ID NO: 8)-cmk] | 324
H-Leu-Leu-Arg-{kbt-Val-NH2} [H-LLR-kbt-Val-NH2] | 0.88
Fmoc-Phe-Arg-kbt [Fmoc-FR-kbt] | 778
Fmoc-Asp-Arg-kbt [Fmoc-DR-kbt] | 233
H-[dW]-Leu-Arg-{kbt-OH} [H-dWLR-kbt-COOH] | 136
H-Arg-Leu-Arg-kbt [H-RLR-kbt] | 0.5
Fmoc-Tyr-Arg-kbt [Fmoc-YR-kbt] | 217
H-Trp-Phe-Arg-kbt [H-WFR-kbt] | 240
Fmoc-Met-Arg-kbt [Fmoc-MR-kbt] | 490
H-[dW]-Phe-Arg-kbt [H-dWFR-kbt] | 370
Fmoc-Glu-Arg-kbt [Fmoc-ER-kbt] | 338
H-[dW]-Leu-Arg-kbt [H-dWLR-kbt] | 3.58
H-[dW]-Phe-Arg-{kbt-OH} [H-dWFR-kbt-COOH] | 1.41
Fmoc-Gln-Arg-kbt [Fmoc-QR-kbt] | 170

Molecule | Ki [nM]
Fmoc-Lys-Arg-kbt [Fmoc-KR-kbt] | 159
Fmoc-Ile-Arg-kbt [Fmoc-IR-kbt] | 297
Fmoc-Thr-Arg-kbt [Fmoc-TR-kbt] | 437
Fmoc-Leu-Arg-kbt [Fmoc-LR-kbt] | 115
H-Trp-Leu-Arg-{kbt-OH} [H-WLR-kbt-COOH] | 446
B1 | 0.347
Ac-KRLR (not fully specified (C-terminus); also: benzyl COOH at 3 or 4 (tables differ)) [Ac-KRLR(SEQ ID NO: 8)-kbt-Benzyl-3-COOH] | 0.3
H-Trp-Leu-Arg-kbt [H-WLR-kbt] | 1.52
B2 | 2.08
{Cy5.5}-KRLR-kbt [Cy5.5-KRLR(SEQ ID NO: 8)-kbt] | 3.89
Fmoc-Ala-Arg-kbt [Fmoc-AR-kbt] | 272
Fmoc-Asn-Arg-kbt [Fmoc-NR-kbt] | 1.92
Ac-KRLR-{Kbt‑6‑CONH-Val-NH2} [Ac-KRLR(SEQ ID NO: 8)-Kbt-Val-NH2] | 0.227
Fmoc-Pro-Arg-kbt [Fmoc-PR-kbt] | 776
Fmoc-Gly-Arg-kbt [Fmoc-GR-kbt] | 831
Fmoc-His-Arg-kbt [Fmoc-HR-kbt] | 268
B3 | 1.13

Biological target: recombinant thrombin
Experiment: selectivity inhibition assay

Molecule | Ki [nM]
H-Leu-Leu-Arg-{kbt-Val-NH2} [H-LLR-kbt-Val-NH2] | 101
Fmoc-Phe-Arg-kbt [Fmoc-FR-kbt] | > 2000
H-Arg-Leu-Arg-kbt [H-RLR-kbt] | 8200
Fmoc-Leu-Arg-kbt [Fmoc-LR-kbt] | 995
B1 | > 20000
Ac-KRLR (not fully specified (C-terminus); also: benzyl COOH at 3 or 4 (tables differ)) [Ac-KRLR(SEQ ID NO: 8)-kbt-Benzyl-3-COOH] | 1620
H-Trp-Leu-Arg-kbt [H-WLR-kbt] | 457
Ac-KRLR-{Kbt‑6‑CONH-Val-NH2} [Ac-KRLR(SEQ ID NO: 8)-Kbt-Val-NH2] | 1560

Biological target: Factor Xa
Experiment: selectivity inhibition assay

Molecule | Ki [nM]
H-Leu-Leu-Arg-{kbt-Val-NH2} [H-LLR-kbt-Val-NH2] | 159
Fmoc-Phe-Arg-kbt [Fmoc-FR-kbt] | 28.4
H-Arg-Leu-Arg-kbt [H-RLR-kbt] | 56
Fmoc-Leu-Arg-kbt [Fmoc-LR-kbt] | 410
B1 | 1
H-Trp-Leu-Arg-kbt [H-WLR-kbt] | 532
Ac-KRLR-{Kbt‑6‑CONH-Val-NH2} [Ac-KRLR(SEQ ID NO: 8)-Kbt-Val-NH2] | 17

Biological target: Trypsin
Experiment: selectivity inhibition assay

Molecule | Ki [nM]
H-Leu-Leu-Arg-{kbt-Val-NH2} [H-LLR-kbt-Val-NH2] | 0.61
Fmoc-Phe-Arg-kbt [Fmoc-FR-kbt] | 14.3
H-Arg-Leu-Arg-kbt [H-RLR-kbt] | 0.13
Fmoc-Leu-Arg-kbt [Fmoc-LR-kbt] | 19.8
H-Trp-Leu-Arg-kbt [H-WLR-kbt] | 0.05

Biological target: Hepatocyte Growth Factor Activator (HGFA) serine protease domain, N-terminal His-tag, recombinant (Homo sapiens (Human)) (UniProt Q04756)
Experiment: not given

Molecule | IC50 of enzyme inhibition [nM]
Ac-SRLdR-kt (peptide) | 2240
Ac-SdRLR-kt (peptide) | 1420
Ac-RQLdR-kt (peptide) | 3120
Ac-SHLdR-kt (peptide) | 21200
Ac-SKLdR-kt (peptide) | 6310
H-KQLdR-kt (peptide) | 11300
Ac-WKLdR-kt (peptide) | 6500
Ac-WQLdR-kt (peptide) | 7120
Ac-KQLdR-kt (peptide) | 5530
Ac-KHLdR-kt (peptide) | 10900
Ac-SKFdR-kt (peptide) | 10800
Ac-KQFdR-kt (peptide) | 7820
H-KQLR(SEQ ID NO: 1)-Kt (peptide) | 440
Ac-SdRLdR-kt (peptide) | 11900

Biological target: Hepatocyte Growth Factor Activator (HGFA) serine protease domain, N-terminal His-tag, recombinant (Homo sapiens (Human)) (UniProt Q04756)
Experiment: fluorogenic inhibition assay

Molecule | Ki [nM]
Fmoc-Ser-Arg-kbt [Fmoc-SR-kbt] | > 20000
Fmoc-Val-Arg-kbt [Fmoc-VR-kbt] | 4630
Fmoc-Arg-Arg-kbt [Fmoc-RR-kbt] | 8630
Fmoc-Trp-Arg-kbt [Fmoc-WR-kbt] | 3200
{Cy5.5}-KRLR-cmk (reading uncertain) [Cy5.5-KRLR(SEQ ID NO: 8)-cmk] | 34.1
H-Leu-Leu-Arg-{kbt-Val-NH2} [H-LLR-kbt-Val-NH2] | 82.1
Fmoc-Phe-Arg-kbt [Fmoc-FR-kbt] | 964
Fmoc-Asp-Arg-kbt [Fmoc-DR-kbt] | > 20000
H-[dW]-Leu-Arg-{kbt-OH} [H-dWLR-kbt-COOH] | 346
H-Arg-Leu-Arg-kbt [H-RLR-kbt] | 83.1
Fmoc-Tyr-Arg-kbt [Fmoc-YR-kbt] | 2960
H-Trp-Phe-Arg-kbt [H-WFR-kbt] | 5680
H-[dW]-Phe-Arg-kbt [H-dWFR-kbt] | 2250
Fmoc-Glu-Arg-kbt [Fmoc-ER-kbt] | > 20000
H-[dW]-Leu-Arg-kbt [H-dWLR-kbt] | 128
H-[dW]-Phe-Arg-{kbt-OH} [H-dWFR-kbt-COOH] | 981
Fmoc-Gln-Arg-kbt [Fmoc-QR-kbt] | 6830

Molecule | Ki [nM]
Fmoc-Lys-Arg-kbt [Fmoc-KR-kbt] | > 20000
Fmoc-Ile-Arg-kbt [Fmoc-IR-kbt] | 6470
Fmoc-Thr-Arg-kbt [Fmoc-TR-kbt] | > 20000
Fmoc-Leu-Arg-kbt [Fmoc-LR-kbt] | 450
H-Trp-Leu-Arg-{kbt-OH} [H-WLR-kbt-COOH] | 1380
B1 | 133
Ac-KRLR (not fully specified (C-terminus); also: benzyl COOH at 3 or 4 (tables differ)) [Ac-KRLR(SEQ ID NO: 8)-kbt-Benzyl-3-COOH] | 3.33
H-Trp-Leu-Arg-kbt [H-WLR-kbt] | 104
B2 | 3710
{Cy5.5}-KRLR-kbt [Cy5.5-KRLR(SEQ ID NO: 8)-kbt] | 608
Fmoc-Ala-Arg-kbt [Fmoc-AR-kbt] | 7980
Fmoc-Asn-Arg-kbt [Fmoc-NR-kbt] | > 20000
Ac-KRLR-{Kbt‑6‑CONH-Val-NH2} [Ac-KRLR(SEQ ID NO: 8)-Kbt-Val-NH2] | 5.83
Fmoc-Pro-Arg-kbt [Fmoc-PR-kbt] | > 20000
Fmoc-Gly-Arg-kbt [Fmoc-GR-kbt] | 9380
Fmoc-His-Arg-kbt [Fmoc-HR-kbt] | 6360
B3 | 2280
